Measurements published in patent US20110319287A1, “MODULATOR ASSAY” (ADDEX PHARMA S.A., priority 2009, published 2011).

T1: TL1A-activated DR3 receptor (Homo sapiens, UniProt Q93038)
T1 construct: (N); expressed in transfected cells; host or cells: HeLa Tet-On cells stably expressing TRADD-EYFP, transfected with pTRE2-DR3 (HeLa TRADD DR3)
T1 sequence (Q93038 with tags, fused parts or gaps P167L): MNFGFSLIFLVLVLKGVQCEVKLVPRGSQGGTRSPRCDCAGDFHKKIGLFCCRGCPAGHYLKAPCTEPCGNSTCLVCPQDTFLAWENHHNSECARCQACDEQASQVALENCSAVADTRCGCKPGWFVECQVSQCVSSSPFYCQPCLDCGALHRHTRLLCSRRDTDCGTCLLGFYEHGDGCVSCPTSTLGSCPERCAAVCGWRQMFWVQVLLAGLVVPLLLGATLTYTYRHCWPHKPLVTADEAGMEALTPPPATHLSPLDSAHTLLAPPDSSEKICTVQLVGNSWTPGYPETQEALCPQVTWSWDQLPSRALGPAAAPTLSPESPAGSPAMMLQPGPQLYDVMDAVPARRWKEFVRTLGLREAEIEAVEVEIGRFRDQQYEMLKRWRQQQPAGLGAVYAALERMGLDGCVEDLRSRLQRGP

T2: TL1A-activated DR3 receptor (Homo sapiens, UniProt Q93038, P167L)
T2 construct: (N); expressed in transfected cells; host or cells: HeLa Tet-On cells stably expressing TRADD-EYFP, transfected with pTRE2-DR3 (HeLa TRADD DR3)
T2 sequence (Q93038 with tags, fused parts or gaps P167L): T1 sequence (Q93038 with tags, fused parts or gaps P167L)

B1: CD40L: Fc [human]: CD40L [human] from Apotech Corporation (protein)
chain: GDQNPQIAAHVISEASSKTTSVLQWAEKGYYTMSNNLVTLENGKQLTVKRQGLYYIYAQVTFCSNREASSQAPFIASLCLKSPGRFERILLRAANTHSSAKPCGQQSIHLGGVFELQPGASVFVNVTDPSQVSHGTGFTSFGLLKL
modifications: left off: a dimerising Fc or GST
notes: Fc [human]: CD40L [human] from Apotech Corporation
B2: DcR3: DR3 inhibitor; Recombinant Human DcR3/TNFRSF6B/Fc Chimera from R&D Systems (protein)
chain: VAETPTYPWRDAETGERLVCAQCPPGTFVQRPCRRDSPTTCGPCPPRHYTQFWNYLERCRYCNVLCGEREEEARACHATHNRACRCRTGFFAHAGFCLEHASCPPGAGVIAPGTPSQNTQCQPCPPGTFSASSSSSEQCQPHRNCTALGLALNVPGSSSHDTLCTSCTGFPLSTRVPGAEECERAVIDFVAFQDISIKRLQRLLQALEAPEGWGPTPRAGRAALQLKLRRRLTELLGAQDGALLVRLLQALRVARMPGLERSVRERFLPVH
modifications: left off: a dimerising Fc or GST
notes: Recombinant Human DcR3/TNFRSF6B/Fc Chimera from R&D Systems

What was measured:
[1] = test system: TNF-induced relocalisation of EYFP-TRADD (TNFR1-containing complex I) in HeLa cells; assay: TNF-mediated relocation of fluorescently tagged TRADD in Clone #49-E2 HeLa cells, 384-well (Example 2); type: cell-based, human; settings: added instead of TNF; FIG. 12
Procedure: The following experimental procedure to detect the reporter molecule in the presence of absence of a “test” compound (or molecule, as described below) was conducted.
On day 1, 10^3 cells per well were plated in thin glass bottom 384 wells plate in 50 μl of culture media (DMEM glutamax, 10% FBS, peni-strep, geneticin, hygromycin). The cells were incubated overnight at 37° C. On day 2, media was aspirated, and 35 μl of warm DMEM, 2, 5% FBS, HEPES 10 mM added. Then, 15 μl of 4× the test compound diluted in DMEM, 2, 5% FBS, HEPES 10 mM was added to cells using a Biomek laboratory automation workstation (Beckman-Coulter). This was incubated at room temperature for 1.5 min. […] The cells were washed three times with PBS 1× using an Embla 384 Cell Washer (Molecular Devices). Cells were fixed by adding PBS 1×, 5% PFA+Hoescht 0.2 μg/ml using a Multidrop 384 dispensor (Thermo Scientific; 30 μl/well) followed by an incubation for 20 min at room temperature in the dark. After a further three washes of the cells with PBS 1× using the Embla 384 Cell Washer, 60 μl per well of PBS 1×, 1% peni-strep was added. The plate was covered with a transparent sealing film. Readings were then taken on the Scientific Cellomics ArrayScan HCS Reader automated microscope system as used in Example 1.

[2] = test system: TNF-induced TRADD relocalisation in HeLa TRADD DR3 cells; assay: TNF-induced TRADD-EYFP relocation in HeLa TRADD DR3 recombinant cells (Example 3); type: cell-based, human; settings: in the presence of 100 ng/ml TNF; FIG. 19
From the text: (§1) In a further example of the present invention, a method involving the TL1A-activated DR3 receptor was developed. The TRADD-EYFP HeLa clones comprising the TRADD-EYFP reporter molecule transfected into HeLa cells as described in Example 1 was employed. The DR3 receptor (cDNA sequence shown in SEQ ID NO: 19 and encoded protein shown in SEQ ID NO: 20) which had been cloned in the vector pCR3.1 (Invitrogen) was transferred into the vector pTre2 (Clontech) using the Gateway® cloning technique with the primers Attb1 Forward primer (SEQ ID NO: 21) and Attb2 Reverse primer (SEQ ID NO: 22), yielding a pTRE2-DR3 expression vector (SEQ ID NO: 23). This expression vector was then transfected into the TRADD-EYFP HeLa clones to produce a double transformants designated HeLa TRADD DR3.
(§2) Monitoring and quantification of the TRADD-EYFP reporter molecule was conducted as described in Examples 1 and 2 above. […] The data of FIG. 17 are depicted graphically in FIG. 18.

[3] = molecular target: T1, TL1A-activated DR3 receptor; assay: TL1A-induced TRADD-EYFP relocation in HeLa TRADD DR3 recombinant cells (Example 3); type: cell-based; settings: in the presence of 300 ng/ml TL1A; FIG. 17
From the text: as §1, §2

[4] = molecular target: T2, TL1A-activated DR3 receptor; assay: as above; type: cell-based; settings: in the presence of 300 ng/ml TL1A; FIG. 17
From the text: as §1, §2

Row | Molecule | selectivity: relocalisation of the reporter molecule EYFP-TRADD effected by other compounds or molecules [1] | dose-dependent inhibition of TNF-induced relocalisation [2] | IC50 on TL1A-induced relocalisation [3] [µg/mL] | dose-dependent inhibition of TL1A-induced relocalisation [4]
1 | B1 | not effected |  |  | 
2 | B2 |  | not | 1.41 | dose-dependently inhibited
